Reference: patent publication US20230303708A1

Target: hBCMA-41BB-CD3 CAR (CAR-PMC750)
Experiment: FACS of CAR-T cells stained with biotinylated goat anti-mouse F(ab)'2 and PE-streptavidin, day 9 of expansion

hBCMA-41BB-CD3 CAR (CAR-PMC750), sequence (chain, as listed by the source): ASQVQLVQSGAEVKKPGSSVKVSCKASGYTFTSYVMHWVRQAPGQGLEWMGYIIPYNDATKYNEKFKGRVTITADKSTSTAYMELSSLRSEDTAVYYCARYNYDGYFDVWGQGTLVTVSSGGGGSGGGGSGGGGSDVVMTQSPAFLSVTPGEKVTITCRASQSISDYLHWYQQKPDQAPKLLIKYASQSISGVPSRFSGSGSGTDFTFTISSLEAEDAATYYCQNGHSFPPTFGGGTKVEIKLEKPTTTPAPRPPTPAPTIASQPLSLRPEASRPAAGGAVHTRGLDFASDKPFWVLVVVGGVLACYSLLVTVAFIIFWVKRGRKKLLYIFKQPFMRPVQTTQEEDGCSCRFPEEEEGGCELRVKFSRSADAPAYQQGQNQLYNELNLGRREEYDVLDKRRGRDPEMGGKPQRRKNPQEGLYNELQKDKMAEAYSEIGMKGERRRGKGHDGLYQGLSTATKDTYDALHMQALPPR

percent CAR-positive cells: > 70%
Substance: biotin-conjugated goat anti-mouse F(ab)'2 (antibody)
